± gives the uncertainty stated by the source.
Test: self-splicing fitness, log relative to wild type (ln ratio); higher = more splicing; Tetrahymena group I intron in knt gene, E. coli kanamycin selection, DiMSum; sequences stand for … in CUCUCU…GGAGGGAAAAGUUAUCAGGCAUGCACCUGGUAGCUAGUCUUUAAACCAAUAGAUUGCAUCGGUUUAAAAGGCAAGACCGUCAAAUUGCGGGAAAGGGGUCAACAGCCGUUCAGUACCAAGUCUCAGGGGAAACUUUGAGAUGGCCUUGCAAAGGGUAUGGUAAUAAGCUGACGGACAUGGUCCUAACCACGCAGCCAAGUCCUAAGUCAACAGAUCUUCUGUUGAUAUGGAUGCAGUUCACAGACUAAAUGUCGGUCGGGGAAGAUGUAUUCUUCUCAUAAGAUAUAGUCGGACCUCUCCUUAAUGGGAGCUAGCGGAUGAAGUGAUGCAACACUGGAGCCGCUGGGAACUAAUUUGUAUGCGAAAGUAUAUUGAUUAGUUUUGGAGUACUCGUGGUCG
Procedure, shortened: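 Pooled colonies went to amplicon sequencing on an Illumina HiSeq 2500 after six replicate transformations. The plates were LB agar with 100 μg/mL carbenicillin, 50 μM IPTG and 0.2% rhamnose, with or without 25 μg/mL kanamycin, incubated overnight at 37°C or 30°C. The E. coli BL21(DE3) library had all eight P1ex-region intron nucleotides randomised, the intron placed in the knt kanamycin-resistance gene on pET-22b(+). DiMSum fitness is the error-weighted combination of replicate fold changes, kanamycin against none, normalised to wild type.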

Sequence	self-splicing fitness (ln) (30 °C)	self-splicing fitness (ln) (37 °C)
CCCAAGCAAUAUUACGCAGG	-2.94 ± 0.2	-2.7 ± 0.48
CCCAAGCAAUAUUACGCCGC	-2.08 ± 0.37	-1.07 ± 0.4
CCCAAGCAAUAUUACGCGUA	-3.43 ± 0.2	-1.29 ± 0.17
CCCAAGCAAUAUUACGGUCU	-4.2 ± 0.2	-2.64 ± 0.14
CCCAAGCAAUAUUACGUAAA	-4.05 ± 0.33	-3.46 ± 0.39
CCCAAGCAAUAUUACGUAUA	-2.91 ± 0.23	-3.24 ± 0.23
CCCAAGCAAUAUUACGUAUG	-4.01 ± 0.15	-1.47 ± 0.11
CCCAAGCAAUAUUACGUGCA	-3.83 ± 0.23	-2.57 ± 0.16
CCCAAGCAAUAUUACGUGUG	-2.98 ± 0.071	-3.12 ± 0.094
CCCAAGCAAUAUUACGUUAU	-4.09 ± 0.2	-2.96 ± 0.19
CCCCAGCAAUAUUACGAAAG	-4.79 ± 0.23	-1.93 ± 0.12
CCCCAGCAAUAUUACGAAUC	-3.68 ± 0.16	-2.49 ± 0.22
CCCCAGCAAUAUUACGACAA	–	-2.78 ± 0.28
CCCCAGCAAUAUUACGACUG	-3.32 ± 0.11	-2.97 ± 0.17
CCCCAGCAAUAUUACGAGGG	-3.83 ± 0.15	-2.78 ± 0.18
CCCCAGCAAUAUUACGAGGU	-3.6 ± 0.12	-2.23 ± 0.12
CCCCAGCAAUAUUACGAGUA	-2.91 ± 0.12	-2.58 ± 0.14
CCCCAGCAAUAUUACGAUCA	-1.97 ± 0.12	-2.68 ± 0.23
CCCCAGCAAUAUUACGAUGU	-4.53 ± 0.2	-3.11 ± 0.17
CCCCAGCAAUAUUACGCACC	-2.46 ± 0.18	-2.32 ± 0.24
CCCCAGCAAUAUUACGCAGC	-3.44 ± 0.15	-2.84 ± 0.21
CCCCAGCAAUAUUACGCCGC	-2.93 ± 0.31	-2.26 ± 0.42
CCCCAGCAAUAUUACGCCGU	-3.04 ± 0.16	-2.23 ± 0.21
CCCCAGCAAUAUUACGCCUA	-2.61 ± 0.18	-2.89 ± 0.32

Sequence	self-splicing fitness (ln) (30 °C)	self-splicing fitness (ln) (37 °C)
CCCCAGCAAUAUUACGCCUC	-3.25 ± 0.21	-1.6 ± 0.21
CCCCAGCAAUAUUACGCGAU	-4.32 ± 0.25	-2.36 ± 0.28
CCCCAGCAAUAUUACGCGGU	-3.91 ± 0.13	-2.17 ± 0.15
CCCCAGCAAUAUUACGCUCA	-3.21 ± 0.24	-0.421 ± 0.17
CCCCAGCAAUAUUACGCUCC	-3.09 ± 0.36	-2.91 ± 0.47
CCCCAGCAAUAUUACGGGAG	-3.08 ± 0.17	-2.61 ± 0.18
CCCCAGCAAUAUUACGGGGA	-3.15 ± 0.14	-3 ± 0.15
CCCCAGCAAUAUUACGGUAA	-3.78 ± 0.15	-2.78 ± 0.16
CCCCAGCAAUAUUACGGUUA	-3.5 ± 0.17	-2.61 ± 0.13
CCCCAGCAAUAUUACGUACU	-3.21 ± 0.22	-2.67 ± 0.27
CCCCAGCAAUAUUACGUCGG	-3.66 ± 0.16	-2.86 ± 0.33
CCCCAGCAAUAUUACGUGAG	-1.84 ± 0.07	-1.33 ± 0.084
CCCCAGCAAUAUUACGUGCA	-4.13 ± 0.18	-2.17 ± 0.14
CCCCAGCAAUAUUACGUGCG	-3.1 ± 0.099	-2.58 ± 0.14
CCCCAGCAAUAUUACGUGUU	-3.79 ± 0.12	-3.3 ± 0.17
CCCCAGCAAUAUUACGUUUU	-4.12 ± 0.14	-2.55 ± 0.11
CCCGAGCAAUAUUACGAAUG	-2.61 ± 0.18	-1.41 ± 0.22
CCCGAGCAAUAUUACGAGGG	-4.84 ± 0.36	-2.58 ± 0.22
CCCGAGCAAUAUUACGAGUG	-3.04 ± 0.17	-1.99 ± 0.13
CCCGAGCAAUAUUACGAUCC	-2.76 ± 0.24	-2.71 ± 0.27
CCCGAGCAAUAUUACGCAAG	-2.73 ± 0.27	–
CCCGAGCAAUAUUACGCAUG	-3.7 ± 0.15	-2.64 ± 0.15
CCCGAGCAAUAUUACGCCGG	-3.9 ± 0.37	-2.23 ± 0.34
CCCGAGCAAUAUUACGCCUG	-4.16 ± 0.39	–

— the supplement of paper PMC7877785
